Experimental data: patent publication US20060019893

Target: human FX, P00742
Sequence (P00742 whole entry, looked up): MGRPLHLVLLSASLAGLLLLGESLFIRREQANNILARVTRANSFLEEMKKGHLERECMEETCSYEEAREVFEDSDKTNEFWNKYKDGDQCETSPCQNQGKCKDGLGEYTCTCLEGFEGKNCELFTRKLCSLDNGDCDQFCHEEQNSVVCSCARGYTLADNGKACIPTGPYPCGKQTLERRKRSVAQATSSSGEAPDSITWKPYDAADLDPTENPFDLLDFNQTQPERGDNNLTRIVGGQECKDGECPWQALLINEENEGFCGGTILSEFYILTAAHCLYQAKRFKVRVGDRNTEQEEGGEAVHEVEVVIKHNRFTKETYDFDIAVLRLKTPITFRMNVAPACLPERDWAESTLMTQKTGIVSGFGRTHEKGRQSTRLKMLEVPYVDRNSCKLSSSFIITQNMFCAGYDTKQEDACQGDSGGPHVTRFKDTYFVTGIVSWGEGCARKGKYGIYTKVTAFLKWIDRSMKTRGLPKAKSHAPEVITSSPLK

B1: wildtype FVIIa (protein)
chain 1: ANAFLEELRPGSLERECKEEQCSFEEAREIFKDAERTKLFWISYSDGDQCASSPCQNGGSCKDQLQSYICFCLPAFEGRNCETHKDDQLICVNENGGCEQYCSDHTGTKRSCRCHEGYSLLADGVSCTPTVEYPCGKIPILEKRNASKPQGR
chain 2: IVGGKVCPKGECPWQVLLLVNGAQLCGGTLINTIWVVSAAHCFDKIKNWRNLIAVLGEHDLSEHDGDEQSRRVAQVIIPSTYVPGTTNHDIALLRLHQPVVLTDHVVPLCLPERTFSERTLAFVRFSLVSGWGQLLDRGATALELMVLNVPRLMTQDCLQQSRKVGDSPNITEYMFCAGYSDGSKDSCKGDSGGPHATHYRGTWYLTGIVSWGQGCATVGHFGVYTRVSQYIEWLQKLMRSEPRPGVLLRAPFP
Km, FX activation by relipidated TF•FVIIa (0.4 nM relipidated TF, 1 nM FVIIa): 0.13 µM
Vmax, FX activation by relipidated TF•FVIIa (0.4 nM relipidated TF, 1 nM FVIIa): 600 mOD405/min
Vmax/Km, FX activation by relipidated TF•FVIIa (mOD405/min/nM): 4.6
